Test results taken from patent US20230405078A1, “DETECTION AND TREATMENT OF INTESTINAL FIBROSIS” (THE REGENTS OF THE UNIVERSITY OF CALIFORNIA, priority 2020, published 2023).

Columns and labels:
[1] = system: Human colonic CCD-18Co fibroblasts; assay: TGF-β1-induced fibrogenesis in CCD-18Co fibroblasts; type: cell-based; settings: TGF-β1-treated CCD-18Co fibroblasts; elafin 1 μg/ml
Description: Cleveland Clinic IRB directives (IRB #17-1167). Primary non-IBD patient-derived colonic fibroblasts (H6231) were purchased from Cell Biologics. All primary colonic fibroblasts were cultured in fibroblast medium (M2267, Cell Biologics). Human colonic CCD-18Co fibroblasts (ATCC) were cultured in minimal essential medium Eagle's medium (MEM) containing 10% fetal bovine serum and 1% penicillin-streptomycin 6, 20. All fibroblasts were grown to 80% confluence and then switched to serum-free media overnight for experiments.
For activation of protease-activated receptors (PARs), fibroblasts were pretreated with 0.8% DMSO, 10 μM PAR1 agonist TRAP-6 (HY-P0078, MCE), 10 μM PAR2 agonist SLIGKV-NH2 (Protease-Activated Receptor-2, amide, HY-P0283, MCE), or 0.4 μg/ml PAR2-activating protease recombinant cathepsin S (1183-CY-010, R&D Systems) for 30 minutes. For miR205-5p activation, fibroblasts were transfected with (30 picomoles/well) either control (YM00479902) or miR205-5p miRCURY LNA mimic (YM00472340) from Qiagen via Lipofectamine 3000 transfection reagent (L3000001, ThermoFisher) in Opti-MEM (#31985062, ThermoFisher) overnight. For miR205-5p inhibition, fibroblasts were pretreated with 50nM either control (Y100199006) or miR205-5p power inhibitors (Y104101508-DDA) from Qiagen overnight. […]

ERK1/2 phosphorylation = assay: Phospho-ERK1/2 ELISA in CCD-18Co fibroblasts; type: cell-based, human; settings: elafin 1 μg/ml, 2 hours
Description: FIG. 27. Elafin inhibited ERK1/2 phosphorylation in intestinal fibroblasts via PAR2. (A) Serum starved CCD-18Co and primary stricturing CD patient-derived colonic fibroblasts were transiently transfected with either control siRNA or ZEB1 siRNA overnight, followed by treatment with 10 ng/ml TGF-β1 or 100 μg/ml stricturing CD patient-derived serum exosomes (CDSE) for 24 hours. (B) CCD-18Co fibroblasts were treated with DMSO, PAR1 inhibitor (SCH79797), or PAR2 inhibitor (GB88) for 2 hours. GB88 inhibited ERK1/2 phosphorylation. (C) CCD-18Co fibroblasts were pretreated with DMSO, PAR1 agonist, or PAR2 agonists for 30 minutes, followed by TGF-β1 10 ng/ml. Two hours later, elafin (1 μg/ml) and incubated for 2 hours. Elafin inhibited ERK1/2 phosphorylation, which was reversed by PAR2 agonist. […] Phospho-ERK1/2, ProCOL1A1, COL1A2, and ZEB1 protein were determined by ELISA. miR205-5p expression was determined by real-time RT-PCR. […]
FIG. 28. […] (D) Quantification of cathepsin S signals (B7-8) and control signals (A1-2 and E1-2) on the protease array using Bio-Rad Image Lab Software. […] Phospho-ERK1/2 was determined by ELISA. […] ProCOL1A1 and COL1A2 were determined by ELISA. […]

B1: Cathepsin S: PAR2-activating protease recombinant cathepsin S (protein)
chain: QLHKDPTLDHHWHLWKKTYGKQYKEKNEEAVRRLIWEKNLKFVMLHNLEHSMGMHSYDLGMNHLGDMTSEEVMSLMSSLRVPSQWQRNITYKSNPNRILPDSVDWREKGCVTEVKYQGSCGACWAFSAVGALEAQLKLKTGKLVSLSAQNLVDCSTEKYGNKGCNGGFMTTAFQYIIDNKGIDSDASYPYKAMDQKCQYDSKYRAATCSKYTELPYGREDVLKEAVANKGPVSVGVDARHPSFFLYRSGVYYEPSCTQNVNHGVLVVGYGDLNGKEYWLVKNSWGHNFGEEGYIRMARNKGNHCGIASFPSYPEI
- effect on elafin-mediated inhibition of collagen expression [1]: reversed
- effect on elafin-mediated inhibition of ERK1/2 phosphorylation (ERK1/2 phosphorylation): reversed
